Patent US20200123264A1 (Regeneron, published 2020)

Tests used:
Test in all cases: Luminex, myc-captured LEPR protein on beads, Ab 0.5 µg/mL
[1] = target: T1, human LEPR CRH2-MMH (human, UniProt P48357 428-634, limits assumed)
T1 construct: domain: CRH2; Transiently expressed, captured from supernatant on anti-myc beads
T1 sequence (looked up): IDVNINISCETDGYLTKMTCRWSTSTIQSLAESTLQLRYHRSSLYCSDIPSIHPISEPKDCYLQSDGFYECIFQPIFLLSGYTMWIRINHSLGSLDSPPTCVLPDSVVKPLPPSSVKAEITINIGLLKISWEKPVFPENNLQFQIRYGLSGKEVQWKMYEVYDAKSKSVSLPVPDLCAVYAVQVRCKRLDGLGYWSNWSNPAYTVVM
Procedure: (§1) Aliquots of microspheres with immobilized anti-myc monoclonal antibodies, prepared as described above, were added individually to 1 mL of the each of these protein supernatants. The microspheres were gently mixed, incubated for two hours at 25° C., washed twice with 1 mL of DBPS, centrifuged to remove the supernatant and finally resuspended in 1 mL of DPBS buffer. Forty eight μL of anti-myc IgG coupled microspheres from individual reactions with full length human LEPR and with each of the human LEPR domain proteins were withdrawn and mixed together in 3.6 mL of PBS+20 mg/mL BSA+0.05% sodium azide (blocking buffer).
(§2) From this mixed pool, 75 μL of microspheres were plated per well on a 96 well filter plate (Millipore, Cat. No: MSBVN1250) and mixed with 25 μL of individual anti-human LEPR monoclonal antibodies (0.5 or 5 μg/mL), incubated for two hours at 25° C. and then washed twice with 200 μL of DPBS with 0.05% Tween 20 (washing buffer). […] After 30 minutes, the samples were washed twice with 200 μL of washing buffer and resuspended in 150 μL of wash buffer. The Median Fluorescence intensity (MFI) of the microspheres was measured in a Luminex Analyzer.

[2] = target: T2, human LEPR CRH1 (D1,D2,D3)-MMH (human, UniProt P48357 22-427, limits assumed)
T2 construct: domain: CRH1-Ig (D1,D2,D3); Transiently expressed, captured from supernatant on anti-myc beads; also called CRH1-Ig (D1, D2, D3)
T2 sequence (looked up): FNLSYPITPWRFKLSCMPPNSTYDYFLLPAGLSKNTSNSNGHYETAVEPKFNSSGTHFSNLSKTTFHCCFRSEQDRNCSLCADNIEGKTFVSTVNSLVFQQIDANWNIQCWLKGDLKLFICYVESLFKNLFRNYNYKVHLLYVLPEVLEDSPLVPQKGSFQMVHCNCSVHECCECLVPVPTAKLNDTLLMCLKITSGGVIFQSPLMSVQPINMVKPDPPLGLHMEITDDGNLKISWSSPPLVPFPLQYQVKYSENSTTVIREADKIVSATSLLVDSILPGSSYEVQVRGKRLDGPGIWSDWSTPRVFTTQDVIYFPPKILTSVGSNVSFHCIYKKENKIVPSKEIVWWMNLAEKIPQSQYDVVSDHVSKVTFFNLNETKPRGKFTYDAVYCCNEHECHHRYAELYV
Procedure: as §1, §2

[3] = target: T3, human LEPR CRH1 (D1,D2)-MMH (human, UniProt P48357 22-339, limits assumed)
T3 construct: domain: CRH1 (D1,D2); Transiently expressed, captured from supernatant on anti-myc beads
T3 sequence (looked up): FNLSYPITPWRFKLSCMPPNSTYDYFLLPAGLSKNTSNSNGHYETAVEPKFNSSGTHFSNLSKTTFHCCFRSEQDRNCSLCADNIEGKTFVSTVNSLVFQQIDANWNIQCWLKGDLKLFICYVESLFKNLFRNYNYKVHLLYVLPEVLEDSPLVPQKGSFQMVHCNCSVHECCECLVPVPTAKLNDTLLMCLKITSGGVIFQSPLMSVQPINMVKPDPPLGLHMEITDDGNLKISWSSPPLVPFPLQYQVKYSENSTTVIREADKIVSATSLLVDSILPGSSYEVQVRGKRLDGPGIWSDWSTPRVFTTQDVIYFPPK
Procedure: as §1, §2

[4] = target: T4, human LEPR Ig-CRH2-FNIII-MMH (human, UniProt P48357 330-839, limits assumed)
T4 construct: domain: Ig-CRH2-FNIII; Transiently expressed, captured from supernatant on anti-myc beads
T4 sequence (looked up): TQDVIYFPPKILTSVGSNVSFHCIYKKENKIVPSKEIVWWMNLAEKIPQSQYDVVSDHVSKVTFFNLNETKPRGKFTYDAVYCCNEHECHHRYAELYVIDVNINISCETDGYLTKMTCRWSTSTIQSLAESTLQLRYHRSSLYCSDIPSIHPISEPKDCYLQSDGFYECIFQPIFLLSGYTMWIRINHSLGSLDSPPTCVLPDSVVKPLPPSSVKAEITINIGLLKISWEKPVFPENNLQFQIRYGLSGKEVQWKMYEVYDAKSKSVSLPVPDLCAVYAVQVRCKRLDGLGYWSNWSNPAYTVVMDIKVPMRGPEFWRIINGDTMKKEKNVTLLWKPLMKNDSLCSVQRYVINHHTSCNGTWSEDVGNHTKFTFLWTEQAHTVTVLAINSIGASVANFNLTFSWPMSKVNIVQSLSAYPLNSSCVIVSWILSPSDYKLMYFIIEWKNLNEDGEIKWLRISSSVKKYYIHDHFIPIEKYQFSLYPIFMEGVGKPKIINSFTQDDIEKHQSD
Procedure: as §1, §2

B1: H4H18462P2 (antibody, human IgG4, V domains shown)
VH: EVQLVESGGDLVQPGRSLRLSCAASGFTFSSFAMSWVRQAPGRGLEWVSSLSDSGDNTYYADSVKGRFTISRDNSKNTLYLQMNNLRAEDTAVYYCAKDLFSGWLFHGFDVWGQGTMVTVSS
VL: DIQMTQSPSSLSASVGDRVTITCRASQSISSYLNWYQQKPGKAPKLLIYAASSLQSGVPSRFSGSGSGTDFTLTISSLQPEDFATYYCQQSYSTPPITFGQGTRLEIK
notes: H4H prefix: human IgG4 Fc
[1]
  Luminex MFI: 8 MFI
[2]
  Luminex MFI: 461 MFI
[3]
  Luminex MFI: 665 MFI
[4]
  Luminex MFI: 11200 MFI
